# Earlier results, collected in article PMC12060137.
# Target: TfR1 (Homo sapiens) (UniProt P02786)
# Sequence (P02786 89-760): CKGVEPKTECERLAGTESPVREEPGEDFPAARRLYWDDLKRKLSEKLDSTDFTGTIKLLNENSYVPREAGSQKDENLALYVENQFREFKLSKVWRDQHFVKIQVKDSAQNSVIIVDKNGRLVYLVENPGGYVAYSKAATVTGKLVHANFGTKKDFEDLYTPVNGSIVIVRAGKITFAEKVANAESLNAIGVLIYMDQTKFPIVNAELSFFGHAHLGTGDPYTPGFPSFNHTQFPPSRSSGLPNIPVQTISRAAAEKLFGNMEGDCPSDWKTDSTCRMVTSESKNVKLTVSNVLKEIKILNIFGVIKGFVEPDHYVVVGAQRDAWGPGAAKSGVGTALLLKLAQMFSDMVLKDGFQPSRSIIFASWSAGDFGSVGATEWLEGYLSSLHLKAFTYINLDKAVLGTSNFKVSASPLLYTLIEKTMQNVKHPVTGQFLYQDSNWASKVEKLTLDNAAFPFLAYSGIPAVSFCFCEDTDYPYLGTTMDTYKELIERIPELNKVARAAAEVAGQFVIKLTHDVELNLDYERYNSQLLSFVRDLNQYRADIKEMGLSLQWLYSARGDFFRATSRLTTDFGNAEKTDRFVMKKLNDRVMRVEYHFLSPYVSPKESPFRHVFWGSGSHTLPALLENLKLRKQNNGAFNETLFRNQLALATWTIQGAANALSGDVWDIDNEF
# Chain of HFt-W4 ferritin nanoparticle (P02794 2-183): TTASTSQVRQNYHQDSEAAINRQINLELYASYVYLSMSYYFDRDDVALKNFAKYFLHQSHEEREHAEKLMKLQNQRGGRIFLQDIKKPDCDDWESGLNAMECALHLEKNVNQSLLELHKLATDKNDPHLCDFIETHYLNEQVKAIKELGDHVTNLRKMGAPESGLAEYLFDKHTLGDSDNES
substance,measurement,value
HFt-W4 ferritin nanoparticle (from UniProt P02794),Kd,25 nM
